Publication PMC8548206, “Single-domain antibody screening by isPLA-seq” (Life Science Alliance, 2021)

Tests used:
[1] = target: T1, HA-tagged SQSTM1 C-terminal region (221–440 aa) (Homo sapiens (Human)., UniProt Q13501); assay: proximity ligation; single sdAb DNA transfected along with HA-tagged SQSTM1 or its truncations; isPLA with anti-HA and anti-Flag antibodies 48 h after transfection; settings: partners not purified
T1 construct: also called C-terminal SQSTM1; source: transfected, in cells (isPLA, co-IP)

[2] = target: T2, HA-tagged SQSTM1 N-terminal region (1–220 aa) (Homo sapiens (Human)., UniProt Q13501); assay: as above; settings: partners not purified
T2 construct: SQSTM1, residues 1-220; also called N-terminal region of SQSTM1 (1–220 aa); source: transfected, in cells (isPLA)

HA-tagged SQSTM1 = target: T3, HA-tagged SQSTM1 (Homo sapiens (Human)., UniProt Q13501); assay: proximity ligation; pooled screen (isPLA-seq): Flag-tagged sdAb library co-transfected with HA-tagged SQSTM1 into HEK293T cells, fixed after 48 h, isPLA with anti-HA and anti-Flag antibodies, positive cells sorted by FACS, three rounds, CDR3 sequenced; settings: partners not purified
T3 construct: autophagy receptor SQSTM1, full length; the printed limits 1-440 fit the human protein; also called HA-tagged bait; full length; source: HEK293T, transfected, in fixed cells (screen)

GST-SQSTM1, 221–440 aa = GST-SQSTM1, 221–440 aa (Homo sapiens (Human)., UniProt Q13501); assay: ITC; settings: both partners purified
[3] = target: T4, Sqstm1 (endogenous, LLC1 cells) (Mus musculus (Mouse)., UniProt Q64337); assay: far-Western, overlay or dot blot; settings: one partner purified
T4 construct: mouse Sqstm1, endogenous in Lewis lung carcinoma (LLC1) cells; also called denatured Sqstm1; source: endogenous, LLC1 cells (lysate for Western blot; fixed cells for staining)

B1: Flag-tagged anti-SQSTM1 sdAb clone #1 (VHH)
VHH: QVQLVESGGGSVQAGGSLRLSCTASGGSEYSYSTFSLGWFRQAPGQEREAVAAIASMGGLTYYADSVKGRFTISRDNAKNTVTLQMNNLKPEDTAIYYCAAEGLVYWTTKKSFGGCLLHDWSWGQGTQVTVSS
notes: 21-aa CDR3 in place of the CDR3 of cAbBCII10; also called anti-SQSTM1 clone #1; sdAb #1; source: HEK293T, transfected (sdAb library in pcDNA3.1), in fixed cells; not shown: 3x Flag, C-terminal, kept
[1]
  binding result: binds
[2]
  binding result: no binding
HA-tagged SQSTM1
  binding result: binds

B2: purified anti-SQSTM1 sdAb clone #1, C-terminal ETA-fused and Flag-tagged (VHH)
VHH: B1 VHH
notes: also called anti-SQSTM1 sdAb #1; ETA-tagged anti-SQSTM1 sdAb
GST-SQSTM1, 221–440 aa
  Kd: 8.8 ± 1.39 µM

B3: purified anti-SQSTM1 sdAb clone #2 (VHH)
VHH: QVQLVESGGGSVQAGGSLRLSCTASGGSEYSYSTFSLGWFRQAPGQEREAVAAIASMGGLTYYADSVKGRFTISRDNAKNTVTLQMNNLKPEDTAIYYCAARAGVCGVVGSFSMYTIGNWVYWGQGTQVTVSS
[3]
  binding result: binds

B4: anti-SQSTM1 sdAb #7 (Flag-tagged, sdAb library) (VHH)
VHH: QVQLVESGGGSVQAGGSLRLSCTASGGSEYSYSTFSLGWFRQAPGQEREAVAAIASMGGLTYYADSVKGRFTISRDNAKNTVTLQMNNLKPEDTAIYYCAAAYIAKRPCCDCREVQWGSRTCWGQGTQVTVSS
notes: 21-aa CDR3 in place of the CDR3 of cAbBCII10; source: HEK293T, transfected (sdAb library in pcDNA3.1), in fixed cells; not shown: 3x Flag, C-terminal, kept
HA-tagged SQSTM1
  binding result: binds

B5: anti-SQSTM1 sdAb #8 (Flag-tagged, sdAb library) (VHH)
VHH: QVQLVESGGGSVQAGGSLRLSCTASGGSEYSYSTFSLGWFRQAPGQEREAVAAIASMGGLTYYADSVKGRFTISRDNAKNTVTLQMNNLKPEDTAIYYCAAARVFMPCTPSHIIGAMCTLACWGQGTQVTVSS
notes: as for B4
HA-tagged SQSTM1
  binding result: binds

B6: anti-SQSTM1 sdAb #9 (Flag-tagged, sdAb library) (VHH)
VHH: QVQLVESGGGSVQAGGSLRLSCTASGGSEYSYSTFSLGWFRQAPGQEREAVAAIASMGGLTYYADSVKGRFTISRDNAKNTVTLQMNNLKPEDTAIYYCAADRGCHSTLGSRISFFKGCIIGWGQGTQVTVSS
notes: as for B4
HA-tagged SQSTM1
  binding result: binds
